The source of these data is patent US9114109B2, “Five-coordinate neuroglobin and use thereof as a blood substitute” (University of Pittsburgh—Of the Commonwealth System of …, priority 2009, dated 2015).

The nature of data set [1]: Anaerobic reaction of deoxygenated globins with excess nitrite (nitrite reductase kinetics, absorption / stopped-flow spectroscopy). Type of data set: biochemical. Here is the method:
Oxygen contamination was prevented by application of positive argon pressure without a channel for gas escape. Concentrations of single species during reactions were determined by least squares deconvolution of the visible absorption spectrum into standard reference spectra using Microsoft Excel analysis. OxyNgb was included to confirm successful deoxygenation before the reaction. […] Fast kinetic studies were performed using an Applied Photophysics DX-17 stopped-flow instrument equipped with rapid-scanning diode array detection. […] To determine bimolecular rate constants all reactions were analyzed with Pro-K software (Applied Photophysics) using singular value decomposition followed by fitting of the reduced data matrix to a pseudo-first order kinetic model.

The nature of data set [2]: Determination of nitrite binding constants to met-Ngb (difference spectra titration). As to conditions: met-Ngb 10 μM, 200 mM phosphate buffer, pH 7.4, 25° C.; read-out: Kd (NO2^−). As to the method: To determine the binding constant of nitrite to metNgb, 10 μM wild type and mutant Ngb in 200 mM phosphate buffer, pH 7.4, were incubated in a cuvette at 25° C. with increasing concentrations of nitrite and the UV—visible spectra were recorded after each increase in nitrite concentration. The constant KD for each protein was determined by interpolation of the absorbance data following procedures in Nicolis et al. (Biochem J 407:89-99, 2007).

A short description of data set [3]: Reaction of met-Ngb with nitrite to produce nitrosyl-Ngb (nitrite ferric heme reduction). The conditions noted are these: met-Ngb with nitrite in the presence of dithionite. It counts as biochemical.
Data set [4] is described as follows: EPR spectroscopy of iron-nitrosyl-heme formation from nitrite. It counts as biochemical. The conditions noted are these: 1 mM nitrite. Here is the method: Iron nitrosyl species were measured by EPR spectroscopy using a Bruker EMX 10/12 spectrometer operating at 9.4 GHz, 5-G modulation, 10.1-milliwatt power, 327.68-ms time constant and 163.84-s scan over 600 G at 110 K as described previously (Basu et al., J Biol Chem 283:32590-32597, 2008; Azarov et al., J. Biol. Chem. 280:[…], 2005). The concentrations of Mb and Ngb species were determined by performing the double integral calculation and comparing to standard samples.

Data set [5] is described as follows: Direct measurement of NO release in gas phase (chemiluminescence). It counts as biochemical. The text has this: Once a stable baseline was established Ngb was reacted with a known amount of nitrite as previously described (Huang et al., J Clin Invest 115:2099-2107, 2005).
The subject of data set [6] is isolated rat liver mitochondria. The experiment in a line: Hypoxic inhibition of respiration of isolated mitochondria. As to conditions: 5 μM protein with 20 μM nitrite, hypoxia. It counts as cell-based. Here is the method:
(§1) Mitochondria were isolated from the livers of male Sprague Dawley rats and incubated with wild-type or mutant Ngb proteins in a sealed, stirred chamber at 37° C. State 3 respiration was stimulated with succinate (15 mM) and ADP (1 mM) and oxygen consumption was measured with a Clark-type oxygen electrode. To measure inhibition of respiration in hypoxic conditions, respiring mitochondria were allowed to consume oxygen until the chamber became anoxic and then the chamber lid was removed to allow the diffusion of air back into the chamber. The rate of mitochondrial respiration was greater than the rate of oxygen entering the chamber such that the oxygen electrode trace remained at zero while the mitochondria were respiring. Nitrite was added to the chamber prior to the removal of the lid and deviation of the oxygen trace from a zero reading signified a decrease in respiration rate. All experiments were performed under conditions where substrates were not limiting. The extent of respiratory inhibition was quantified by measuring the time from equilibration of the mitochondria with air to the time when the oxygen trace deviated from zero. This time to inhibition was expressed as a percentage of maximal inhibition, where 100% inhibition was defined as the time to inhibition in the presence of cyanide and the time to the exhaustion of substrates was used as a measure of 0% inhibition. Similar experiments were performed with SHSY5Y cells suspended in the respirometer and treated with the uncoupler FCCP (5 μM) to measure hypoxic inhibition of cellular respiration.

In another data set the test system is SHSY5Y cells. The experiment in a line: Hypoxic inhibition of cellular respiration in SHSY5Y cells expressing Ngb. As to conditions: cells stably transfected with GFP-tagged Ngb, nitrite added, FCCP. It counts as cell-based. Here is the method:
as §1, with “Similar experiments were performed with SHSY5Y cells suspended in the respirometer and treated with the uncoupler FCCP (5 μM) to measure hypoxic inhibition of cellular respiration.” left out

A further data set relates to SHSY5Y neuronal cells. As to the kind of experiment: Determination of cGMP in SHSY5Y neuronal cells under hypoxia. Type of data set: cell-based. The conditions noted are these: 6 hours hypoxia (1% oxygen), no exogenous nitrite, cells expressing the protein. Here is the method:
SHSY5Y cells, expressing the GFP vector, wild type Ngb or H64L mutant Ngb were plated on Corning® CellBIND® Surface 100 mm culture dishes at a concentration of 5-7.5×10^5 cells/plate and grown to 80-90% confluence. After four days of growth, the cells were incubated for 6 hours under hypoxic conditions (1% oxygen). Following hypoxic treatment, the cGMP levels were measured using the cyclic GMP EIA Kit (Cayman Chemicals catalog #581021) according to the manufacturer's instructions. Protein levels were measured and used to normalize results.

B1: H64L: stable five-coordinate mutant of human neuroglobin, His64 to Leu substitution, SEQ ID NO: 9 (protein)
chain: MERPEPELIRQSWRAVSRSPLEHGTVLFARLFALEPDLLPLFQYNCRQFSSPEDCLSSPEFLDLIRKVMLVIDAAVTNVEDLSSLEEYLASLGRKHRAVGVKLSSFSTVGESLLYMLEKCLGPAFTPATRAAWSQLYGAVVQAMSRGWDGE
In general, Kd refers to the constant that tells how readily two partners part at equilibrium. Regarding B1, in data set [1] (100 μM nitrite, excess dithionite, relative to wild type), the “BRC higher than the wild type Ngb” value was “approximately 2000 fold”. Also, the “relative percentage of the total absorbance change (Soret peak 425 nm) in the first 60 minutes” value in data set [1] (1 mM nitrite, 0.1 M HEPES pH 7.4, H64L-Ngb normalized to 100%) was determined as 100%. In data set [1] (1 mM nitrite, pH 7.4), the “time to end point of the reaction (in words)” value is reported as “reached the end point in the first minute”. Besides, the “BRC from linear fit of kobs versus nitrite concentration (stopped-flow)” value in data set [1] (nitrite 10-1000 μM, 25° C., pH 7.4) was found to be 259 ± 8 M⁻¹ s⁻¹. The “rate of nitrite reaction at acidic pH” value in data set [1] (pH 6.5 and 25° C.) was “above 2,500 M^−1 s^−1”. In addition, the “nitrite reduction to NO, faster than wild type neuroglobin” value in data set [1] (relative to wild type) is on record as “approximately 2000 times”. Further, in data set [2], the equilibrium dissociation constant (Kd) is 170 ± 80 µM. The “BRC of nitrite ferric heme reduction” value in data set [3] is listed as 0.032 ± 0.002. The “completion of iron-nitrosyl formation by EPR (in words)” value in data set [4] is “almost complete in one minute”. The “rate of iron-nitrosyl-Ngb / NO formation by EPR (in words)” value in data set [4] (40±5 μM protein) is given as “dramatically increased the rate of NO formation”. Besides, the “rate of NO detected in gas phase (in words)” value in data set [5] (20 μM Ngb, 1 mM nitrite, anaerobic) is “increased”. For the same molecule, the “NO generation with increasing amounts of nitrite (in words)” value in data set [5] (30 μM protein, nitrite 10-1000 μM) is “a readily proportional NO generation response was observed”. In addition, in data set [6], the “inhibition of respiration (cyanide = 100%)” value was found to be 96±2%. For the same molecule, the “extent of respiration inhibition compared to cyanide” value with SHSY5Y cells is around 40%. In addition, the “cGMP levels (in words)” value with SHSY5Y neuronal cells is on record as “significantly increased”.
